# Bridge positions count the residues as written; N and C are the ends. Square brackets hold non-standard residues; d marks the D form.
# B1: PADI4_12 (peptide)
# peptide: YEPCRFREILDL
# modifications: not fully specified; L-tyrosine at position 1; cyclised via a thioether bond between the N-terminus (chloroacetylated) and the cysteine side chain (Cys4, from the letters); C-terminal amide
# B2: PADI4_10 (peptide)
# peptide: YPWEISVWLLYCG
# modifications: not fully specified; D-tyrosine at position 1; cyclised via a thioether bond between the N-terminus (chloroacetylated) and the cysteine side chain (Cys12, from the letters); C-terminal amide
# notes: cyclic peptide from RaPID selection 2 (0 mM CaCl2); source: synthetic peptide (Fmoc solid-phase synthesis, HPLC purified)
# B3: PADI4_3 (peptide)
# peptide: {CH2CO}-[dY]RDHHYRHPKYCG-NH2
# modifications: thioether N-12
# notes: cyclic peptide from RaPID selection 1 (10 mM CaCl2); source: synthetic peptide (Fmoc solid-phase synthesis, HPLC purified)
# B4: PADI4_11 (peptide)
# peptide: YESCRYRQVLQL
# modifications: not fully specified; acetylated N-terminus (L-tyrosine 1) joined by a thioether bond to the side chain of Cys4 (cyclic); C-terminal amide
# notes: cyclic peptide from RaPID selection 3; also called PAD4_11; source: synthetic peptide (Fmoc solid-phase synthesis, HPLC-purified)
# B5: PADI4_3i (peptide)
# chain: YDRHHYRHPKYCG
# modifications: not fully specified; D-tyrosine at position 1; acetylated N-terminus joined by a thioether bond to the side chain of Cys12 (cyclic); C-terminal amide
# B6: PADI4_1 (peptide)
# peptide: YFYRIGFWYPNYQCG
# modifications: not fully specified; D-tyrosine at position 1; cyclised via a thioether bond between the N-terminus (chloroacetylated) and the cysteine side chain (Cys14, from the letters); C-terminal amide
# notes: cyclic peptide from RaPID selection 1 (10 mM CaCl2); also called PAD4_1; source: synthetic peptide (Fmoc solid-phase synthesis, HPLC purified)
# B7: PADI4_11 (peptide)
# peptide: {CH2CO}-YESCRYRQVLQL-NH2
# modifications: thioether N-4
# notes: cyclic (lariat) peptide from RaPID selection 3 (10 mM CaCl2 + Cl-amidine); also called PAD4_11; source: synthetic peptide (Fmoc solid-phase synthesis, HPLC purified)
# B8: PADI4_12 (peptide)
# peptide: YEPCRFREILDL
# modifications: not fully specified; acetylated N-terminus (L-tyrosine 1) joined by a thioether bond to the side chain of Cys4 (cyclic); C-terminal amide
# notes: cyclic peptide from RaPID selection 3; also called PAD4_12; source: synthetic peptide (Fmoc solid-phase synthesis, HPLC-purified)
# Columns and labels:
# [1] = biological target: His-tagged recombinant human PADI4 (His-PADI4) (human, UniProt Q9UM07 1-663); assay: cell-based or functional assay
# [2] = biological target: T1, bio-His-PADI4 with the active site covalently blocked by Cl-amidine (human, UniProt Q9UM07 1-663, biotin on the N-terminal Avi-Tag (BirA); active site covalently blocked with Cl-amidine (residue not stated)); assay: SPR; as a1 with 10 mM CaCl2 and the PADI4 active site blocked with Cl-amidine; Bio-His-PADI4 captured, peptide as analyte; 25 °C; 1:1 binding model; details: both partners purified
# T1 construct: human peptidylarginine deiminase IV (PADI4), residues 1-663; Same protein as m1; also called 10 mM CaCl2 + Cl-amidine; source: E. coli BL21-DE3 co-expressing biotin ligase (BirA), purified (Ni-NTA, S200 SEC); treated with Cl-amidine; not shown: Avi-Tag (biotinylated), N-terminal, kept; His6, N-terminal, kept
# [3] = biological target: T2, N-terminally biotinylated recombinant human PADI4 (bio-His-PADI4) (human, UniProt Q9UM07 1-663, biotin on the N-terminal Avi-Tag (BirA)); assay: SPR; as a1 but 0 mM CaCl2 (calcium-free running buffer); Bio-His-PADI4 captured, peptide as analyte; 25 °C; 1:1 binding model; details: both partners purified
# T2 construct: human peptidylarginine deiminase IV (PADI4), residues 1-663; (vector p28BIOH-LIC, Addgene plasmid 62352); also called Bio-hPADI4 wt; PADI4_WT; source: E. coli BL21-DE3 co-expressing biotin ligase (BirA), purified (Ni-NTA, S200 SEC); not shown: Avi-Tag (biotinylated), N-terminal, kept; His6, N-terminal, kept
# [4] = biological target: T2, N-terminally biotinylated recombinant …; assay: SPR; single cycle kinetics, Biacore T200 or S200; Bio-His-PADI4 captured on a Biotin CAPture chip (~2000 RU), peptide as analyte; 50 mM HEPES pH 7.5, 150 mM NaCl, 2 mM DTT, 0.05% Tween-20, 0.1% DMSO, 10 mM CaCl2; 25 °C; 1:1 binding model; details: both partners purified
# PADI4_D168A [5] = biological target: T3, PADI4_D168A (human, UniProt Q9UM07 1-663, D168A); assay: SPR; single cycle kinetics; biotinylated PADI4 (wild type or single-residue variant) captured on a Biotin CAPture chip, peptide or peptide analogue as analyte; 50 mM HEPES pH 7.5, 150 mM NaCl, 2 mM DTT, 0.05% Tween-20, 0.1% DMSO; 25 °C; CaCl2 concentration not told for these runs; details: both partners purified
# T3 construct: human PADI4, residues 1-663, single substitution; source: E. coli BL21-DE3, purified (Ni-NTA, S200 SEC), as told for the wild type
# PADI4_E167A [6] = biological target: T4, PADI4_E167A (human, UniProt Q9UM07 1-663, E167A); assay: as above; details: both partners purified
# T4 construct: human PADI4, residues 1-663, single substitution; source: E. coli BL21-DE3, purified (Ni-NTA, S200 SEC), as told for the wild type
# PADI4_C166F [7] = biological target: T5, PADI4_C166F (human, UniProt Q9UM07 1-663, C166F); assay: as above; details: both partners purified
# T5 construct: source: E. coli BL21-DE3, purified (Ni-NTA, S200 SEC), as told for the wild type
# PADI4_D165A [8] = biological target: T6, PADI4_D165A (human, UniProt Q9UM07 1-663, D165A); assay: as above; details: both partners purified
# T6 construct: human PADI4, residues 1-663, single substitution made by mutagenesis of the plasmid; source: E. coli BL21-DE3, purified (Ni-NTA, S200 SEC), as told for the wild type
# PADI4_R394A [9] = biological target: T7, PADI4_R394A (human, UniProt Q9UM07 1-663, R394A); assay: as above; details: both partners purified
# T7 construct: human PADI4, residues 1-663, single substitution; source: E. coli BL21-DE3, purified (Ni-NTA, S200 SEC), as told for the wild type
# PADI4_N373A = biological target: T8, PADI4_N373A (human, UniProt Q9UM07 1-663, N373A); assay: as above; details: both partners purified
# T8 construct: human PADI4, residues 1-663, single substitution; source: E. coli BL21-DE3, purified (Ni-NTA, S200 SEC), as told for the wild type
# [10] = biological target: human PADI4 stably expressed in E14 mouse embryonic stem cells (hPADI4-stable) (human, UniProt Q9UM07 1-663); assay: cell-based or functional assay
# [11] = biological target: T9, N-terminally biotinylated human PADI4 (bio-His-PADI4) (human, UniProt Q9UM07 1-663, G55S (read from the plasmid's DNA at D1:p46, codon AGC)); not stated by the …, biotin on the Avi-Tag (BirA)); assay: SPR; single cycle kinetics, Biacore T200 or S200; Bio-His-PADI4 captured on a Biotin CAPture chip (~2000 RU), peptide as analyte; 25 °C; 50 mM HEPES pH 7.5, 150 mM NaCl, 2 mM DTT, 0.05% Tween-20, 0.1% DMSO, 10 mM Ca2+; 1:1 binding model; details: both partners purified
# T9 construct: human PADI4, residues 1-663, cloned into p28BIOH-LIC; The COLDER assays used His-PADI4 from the same plasmid made without BirA (not biotinylated); also called Bio-hPADI4 wt; Avi-His-PADI4; source: E. coli BL21-DE3 co-expressing biotin ligase (BirA), purified (Ni-NTA, S200 size exclusion); not shown: Avi-Tag, N-terminal, kept; His6, N-terminal, kept
# [12] = biological target: T9, N-terminally biotinylated human PADI4 …; assay: SPR; as a1 with 10 mM Ca2+ and 200 µM Cl-amidine (PADI4 active site covalently blocked with Cl-amidine); details: both partners purified
# [13] = biological target: T9, N-terminally biotinylated human PADI4 …; assay: SPR; single cycle kinetics; Bio-His-PADI4 captured on a Biotin CAPture chip, peptide as analyte; 25 °C; 50 mM HEPES pH 7.5, 150 mM NaCl, 2 mM DTT, 0.05% Tween-20, 0.1% DMSO; CaCl2 concentration not stated for these data; 1:1 binding model; details: both partners purified
# PADI4_D168A [14] = biological target: T3, PADI4_D168A; assay: cell-based or functional assay
# PADI4_E167A [15] = biological target: T4, PADI4_E167A; assay: cell-based or functional assay
# PADI4_C166F [16] = biological target: T5, PADI4_C166F; assay: cell-based or functional assay
# PADI4_D165A [17] = biological target: T6, PADI4_D165A; assay: cell-based or functional assay
# PADI4_R394A [18] = biological target: T7, PADI4_R394A; assay: cell-based or functional assay
# T6 sequence (Q9UM07 whole entry D165A, the tested form may be a part): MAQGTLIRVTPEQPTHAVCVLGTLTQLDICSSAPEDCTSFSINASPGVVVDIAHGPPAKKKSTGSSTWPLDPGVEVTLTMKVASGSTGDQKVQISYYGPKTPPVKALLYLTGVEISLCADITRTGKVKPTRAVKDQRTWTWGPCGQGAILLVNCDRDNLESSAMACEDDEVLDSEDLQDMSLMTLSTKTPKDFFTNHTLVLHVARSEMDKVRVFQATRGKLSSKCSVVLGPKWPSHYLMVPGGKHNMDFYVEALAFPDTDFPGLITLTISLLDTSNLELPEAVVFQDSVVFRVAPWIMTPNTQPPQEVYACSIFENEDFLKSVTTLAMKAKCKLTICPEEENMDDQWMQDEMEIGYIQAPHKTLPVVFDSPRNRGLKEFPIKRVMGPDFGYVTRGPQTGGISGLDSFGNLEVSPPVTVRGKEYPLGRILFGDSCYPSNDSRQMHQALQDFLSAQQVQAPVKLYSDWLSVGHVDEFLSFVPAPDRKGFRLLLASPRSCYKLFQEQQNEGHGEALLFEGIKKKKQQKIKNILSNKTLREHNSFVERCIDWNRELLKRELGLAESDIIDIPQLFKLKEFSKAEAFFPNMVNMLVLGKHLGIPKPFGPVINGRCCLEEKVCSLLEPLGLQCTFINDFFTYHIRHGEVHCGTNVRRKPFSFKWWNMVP
# T5 sequence (Q9UM07 whole entry C166F): as the sequence (Q9UM07 whole entry D165A, the tested form may be a part) above, with A165D, C166F counted along it
# T2 sequence (Q9UM07 whole entry, the tested form may be a part): as the sequence (Q9UM07 whole entry D165A, the tested form may be a part) above, with A165D counted along it
# T4 sequence (Q9UM07 whole entry E167A, the tested form may be a part): as the sequence (Q9UM07 whole entry D165A, the tested form may be a part) above, with A165D, E167A counted along it
# T3 sequence (Q9UM07 whole entry D168A, the tested form may be a part): as the sequence (Q9UM07 whole entry D165A, the tested form may be a part) above, with A165D, D168A counted along it
# T7 sequence (Q9UM07 whole entry R394A, the tested form may be a part): as the sequence (Q9UM07 whole entry D165A, the tested form may be a part) above, with A165D, R394A counted along it
# T9 sequence (Q9UM07 whole entry G55S/V82A/G112A, the tested form may be a part): as the sequence (Q9UM07 whole entry D165A, the tested form may be a part) above, with G55S, V82A, G112A, A165D counted along it
# T1 sequence (Q9UM07 whole entry, the tested form may be a part): as the sequence (Q9UM07 whole entry D165A, the tested form may be a part) above, with A165D counted along it
# T8 sequence (Q9UM07 whole entry N373A, the tested form may be a part): as the sequence (Q9UM07 whole entry D165A, the tested form may be a part) above, with A165D, N373A counted along it
# Chain of His-tagged recombinant human PADI4 (His-PADI4) (Q9UM07 whole entry): as the sequence (Q9UM07 whole entry D165A, the tested form may be a part) above, with A165D counted along it
# Chain of human PADI4 stably expressed in E14 mouse embryonic stem cells (hPADI4-stable) (Q9UM07 whole entry): as the sequence (Q9UM07 whole entry D165A, the tested form may be a part) above, with A165D counted along it
binder,measurement,setting,value
B1,fold reduction of the calcium requirement K50(Ca2+) of PADI4 activity by 30 µM peptide (COLDER assay),[1],4 fold
B2,Kd,[2],> 2000 nM
same,Kd,[3],> 2000 nM
same,Kd,[4],> 2000 nM
B3,Kd,PADI4_D168A [5],20 nM
same,Kd,PADI4_E167A [6],7 nM
same,Kd,PADI4_C166F [7],3 nM
same,Kd,PADI4_D165A [8],61 nM
same,Kd,PADI4_R394A [9],8 nM
same,Kd,PADI4_N373A,83 nM
same,EC50 of inhibition of H3 citrullination in hPADI4-stable mES cells stimulated with KSR/2i for 3 h (high-content imaging),[10],200 nM
B4,koff,[11],0.1 s⁻¹
same,kon,[11],200000 M⁻¹ s⁻¹
same,koff,[12],0.1 s⁻¹
same,kon,[12],300000 M⁻¹ s⁻¹
B5,Kd,[13],> 10000 nM
B6,Kd,[2],727 nM
same,Kd,[3],105 nM
same,Kd,[4],205 nM
B7,ratio of K50(Ca2+) with DMSO to K50(Ca2+) with 30 µM PADI4_11 (COLDER assay),PADI4_D168A [14],2.9 fold
same,ratio of K50(Ca2+) with DMSO to K50(Ca2+) with 30 µM PADI4_11 (COLDER assay),PADI4_E167A [15],2.7 fold
same,ratio of K50(Ca2+) with DMSO to K50(Ca2+) with 30 µM PADI4_11 (COLDER assay),PADI4_C166F [16],0.9 fold
same,ratio of K50(Ca2+) with DMSO to K50(Ca2+) with 30 µM PADI4_11 (COLDER assay),PADI4_D165A [17],1.5 fold
same,ratio of K50(Ca2+) with DMSO to K50(Ca2+) with 30 µM PADI4_11 (COLDER assay),PADI4_R394A [18],1.1 fold
same,Kd,PADI4_D168A [5],4000 nM
same,Kd,PADI4_E167A [6],700 nM
same,Kd,PADI4_C166F [7],> 10000 nM
same,Kd,PADI4_D165A [8],3000 nM
same,Kd,PADI4_R394A [9],> 10000 nM
same,Kd,PADI4_N373A,> 10000 nM
B8,Kd,[11],679 nM
same,koff,[11],0.1 s⁻¹
same,kon,[11],200000 M⁻¹ s⁻¹
same,koff,[12],0.2 s⁻¹
same,kon,[12],300000 M⁻¹ s⁻¹
